Assay results taken from PMC6234862, “The Structure of the Human Respiratory Syncytial Virus M2-1 Protein Bound to the Interaction Domain of the Phosphoprotein P Defines the Orientation of the Complex” (mBio, 2018).
Where no end group is shown, it is not given here. fluorescein = fluorescein label at the peptide N-terminus

B2: P90-110 peptide, unlabeled (residues 90 to 110 of HRSV P) (peptide, UniProt P03421 90-110, looked up)
peptide: DPTPSDNPFSKLYKETIETFD
notes: HRSV phosphoprotein P, strain A2, residues 90-110; residues 97 to 109 seen in the density; also called P peptide; source: synthetic peptide (ProteoGenix)
B4: Human respiratory syncytial virus (HRSV) M2-1 protein, full-length native tetramer (natural protein)
chain: MSRRNPCKFEIRGHCLNGKRCHFSHNYFEWPPHALLVRQNFMLNRILKSMDKSIDTLSEISGAAELDRTEEYALGVVGVLESYIGSINNITKQSACVAMSKLLTELNSDDIKKLRDNEELNSPKIRVYNTVISYIESNRKNNKQTIHLLKRLPADVLKKTIKNTLDIHKSITINNPKESTVSDTNDHAKNNDTT
notes: HRSV M2-1 protein, strain A2, M2-1 ORF; 194 amino acids; Also used here as the wild-type M2-1 of the minigenome rows, where it was expressed from a plasmid in BSRT7 cells; also called native M2-1; tetrameric M2-1; source: E. coli BL21(DE3) Gold, purified (glutathione Sepharose, on-column PreScission cleavage, SP Sepharose; Superdex 75 for crystallization); not shown: GST, N-terminal, cleaved

Key:
[1] = target: GST-P1-241 (full-length HRSV phosphoprotein P fused to GST) (human respiratory syncytial virus, strain A2) (UniProt P03421)
[2] = target: B4; test: pull-down; GST-P constructs from clarified E. coli lysates held on glutathione Sepharose 4B and washed; 1 mg purified M2-1 added, room temperature, 5 min; 25 mM Tris/HCl pH 7.4, 150 mM NaCl, 1 mM DTT; SDS-PAGE, Coomassie staining; conditions: both partners purified
[3] = target: B4; test: crystal structure; M2-1 tetramer mixed with P90-110 in a 1:1 molar ratio, concentrated to 8 mg/ml; sitting drop vapor diffusion at 18°C; 0.2 M trimethylamine N-oxide dihydrate, 0.1 M Tris-HCl pH 8.5, 2% PEG MME 2000; 2.4 Å; conditions: both partners purified
[4] = target: B4; test: fluorescence polarisation; fluorescence anisotropy, direct binding; 10 nM fluorescein-labeled P90-110, M2-1 0.1 nM to 300 μM; 20 mM Tris-Cl pH 7.5, 150 mM NaCl, 0.01% Triton X-100; 30 min at room temperature; 384-well; triplicate; apparent; conditions: both partners purified
[5] = target: T1, GST-P1-241 (full-length HRSV phosphoprotein P fused to GST) (human respiratory syncytial virus, …, UniProt P03421 1-241); test: pull-down; GST-P constructs from clarified E. coli lysates held on glutathione Sepharose 4B and washed; 1 mg purified M2-1 added, room temperature, 5 min; 25 mM Tris/HCl pH 7.4, 150 mM NaCl, 1 mM DTT; SDS-PAGE, Coomassie staining; conditions: both partners purified
T1 construct: pGEX-6P-2 construct; Also used here as the wild-type P of the minigenome rows, where P was expressed from a plasmid in BSRT7 cells (no GST told there); also called WT P; not shown: GST, N-terminal, kept

[6] = target: B2; test: crystal structure; M2-1 tetramer mixed with P90-110 in a 1:1 molar ratio, concentrated to 8 mg/ml; sitting drop vapor diffusion at 18°C; 0.2 M trimethylamine N-oxide dihydrate, 0.1 M Tris-HCl pH 8.5, 2% PEG MME 2000; 2.4 Å; conditions: both partners purified
[7] = target: the molecule itself; test: as above
[8] = target: T2, M2-1 (Human respiratory syncytial virus …, UniProt P04545 1-194); test: fluorescence anisotropy competition; displaces 10 nM fluorescein-P90-110 peptide from 1 uM M2-1; 20 mM Tris-Cl pH 7.5, 150 mM NaCl, 0.01% Triton X-100, room temperature, 30 min; conditions: protein: recombinant; tags: GST removed by PreScission protease; chain copies: 4; single strand
T2 sequence: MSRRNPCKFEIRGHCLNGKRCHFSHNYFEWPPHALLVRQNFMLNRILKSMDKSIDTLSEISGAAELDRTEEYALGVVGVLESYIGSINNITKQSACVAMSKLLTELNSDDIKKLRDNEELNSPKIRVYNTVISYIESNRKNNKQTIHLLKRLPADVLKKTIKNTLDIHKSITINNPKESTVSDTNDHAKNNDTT

Q: For “HRSV M2-1 R126E (from UniProt P04545 1-194) (natural protein)”, which HRSV minigenome assay, eGFP fluorescence in BSRT7 cells relative to WT M2-1 [1] is on record?
A: 30 % of WT M2-1

Q: With “HRSV M2-1 L148A (from UniProt P04545 1-194) (natural protein)” as the molecule, how does the HRSV minigenome assay, eGFP fluorescence in BSRT7 cells relative to WT M2-1 [1] read?
A: 30 % of WT M2-1

B1: GST-P90-160 (domain or fragment)
chain: DPTPSDNPFSKLYKETIETFDNNEEESSYSYEEINDQTNDNITARLDRIDEKLSEILGMLHTLVVASAGPT
notes: HRSV phosphoprotein P, strain A2, residues 90-160; pGEX-6P-2 construct; not shown: GST, N-terminal, kept
Q: Does B1 bind [2]?
A: binds

Q: Does B2 bind [3]?
A: binds

B3: Fluorescein-labeled P90-110 peptide (peptide, UniProt P03421 90-110, looked up)
peptide: fluorescein-DPTPSDNPFSKLYKETIETFD
notes: HRSV phosphoprotein P, residues 90-110; Strain A2 is stated for the unlabeled peptide; source: synthetic peptide (ProteoGenix)
Q: Which Kd [4] does the source give for B3 here?
A: 7.5 µM

Q: Which results are given for B4?
A: binding result [5]: binds; stoichiometry N [6]: 1; stoichiometry N [7]: 4

B5: GST-P90-110 (domain or fragment, UniProt P03421 90-110, looked up)
chain: DPTPSDNPFSKLYKETIETFD
notes: HRSV phosphoprotein P, strain A2, residues 90-110; pGEX-6P-2 construct; also called P90–110 (GST fusion); not shown: GST, N-terminal, kept
Q: Does B5 bind [2]?
A: binds

B6: A13 (poly(A) RNA 13-mer) (ssRNA)
RNA: AAAAAAAAAAAAA
Q: For B6, which IC50 [8] is on record?
A: 1.7 µM
